From PMC6586363, “Phenotypic selection with an intrabody library reveals an anti-apoptotic function of PKM2 requiring Mitofusin-1” (PLoS Biology, 2019)

B1: intrabody 5 (IB5) (scFv, V domains shown)
VH: QVQLVETGPGLVKPSETLSLRCTVSGGSFDNYYWNWIRQPPGKGLEYIGYVFPSTGATNYNPSLGSRVTISLDTSKNQFSLTLTSVTTADTAIYYCVRSGHDLWTGSTWFDPWGQWTTVTVSS
VL: EIVLTQSPGTLSLSPGERATLSCRASQSVSSSYLAWYQQKPGQAPRLLIYGASSRATGIPDRFSGSGSGTDFTLTISRLEPEDIAVYYCQQRSNWPRTFGQGTKVEIK
notes: human VH and VL joined by a flexible peptide linker, from a naive human combinatorial scFv library; Expressed without a secretion leader from an EF1alpha lentiviral vector; The tandem Strep-tag was added for the target immunoprecipitation construct; also called clone 5; scFv 5; source: HEK293T, infected with intrabody lentivirus, in lysate; not shown: FLAG, C-terminal, kept
B2: recombinant monovalent scFv 5 (corresponding to IB5) (scFv, V domains shown)
VH: B1 VH
VL: B1 VL
notes: as the scFv of m1; also called purified scFv 5; recombinant scFv; source: E. coli Rosetta (DE3)pLys, pET28a, purified (Ni-NTA)
B3: recombinant PKM2 (K422R) (enzyme)
chain: not shown
notes: human pyruvate kinase isoform M2 with K422R; also called stably tetrameric PKM2 mutant; source: recombinant; WT and mutant PKM2 proteins from E. coli BL21 (DE3), purified (Ni-NTA)
B4: recombinant PKM2 (K270M) (enzyme)
chain: not shown
notes: human pyruvate kinase isoform M2 with K270M, plasmid pET28a-His-hPKM2 (K270M); source: E. coli BL21 (DE3), purified (Ni-NTA)

Assays:
[1] = molecular target: T1, pyruvate kinase M2 (PKM2), endogenous in 293T cells (Homo sapiens (Human)., UniProt P14618); assay: affinity purification with mass spectrometry; lysate (1% Triton X-100) of 293T cells expressing FLAG/Strep-tagged intrabody; anti-FLAG M2 beads 2 h at 4°C, elution with 3X FLAG peptide, then Strep-Tactin; SDS-PAGE with silver stain, bands identified by MALDI TOF/TOF; conditions: partners not purified
T1 construct: pyruvate kinase isoform M2 (PKM2), product of the PKM gene with exon 10; also called 55-kD protein; source: endogenous, HEK293T lysate

[2] = molecular target: T2, recombinant human PKM2, wild type (human, UniProt P14618); assay: native gel or EMSA; blue native gel electrophoresis; recombinant scFv 5 mixed with recombinant PKM2 (WT or mutant) or PKM1 at various molar ratios, reaction volume 20 μl; conditions: both partners purified
T2 construct: Runs as dimer and tetramer on blue native gels; also called WT PKM2; His-hPKM2; source: E. coli BL21 (DE3), purified (Ni-NTA)

[3] = molecular target: the molecule itself; assay: native gel or EMSA; blue native gel electrophoresis of recombinant PKM2 (WT or mutant) or PKM1, alone or with FBP and/or scFv 5; resolves dimer and tetramer forms

T1 sequence (P14618 whole entry, canonical isoform): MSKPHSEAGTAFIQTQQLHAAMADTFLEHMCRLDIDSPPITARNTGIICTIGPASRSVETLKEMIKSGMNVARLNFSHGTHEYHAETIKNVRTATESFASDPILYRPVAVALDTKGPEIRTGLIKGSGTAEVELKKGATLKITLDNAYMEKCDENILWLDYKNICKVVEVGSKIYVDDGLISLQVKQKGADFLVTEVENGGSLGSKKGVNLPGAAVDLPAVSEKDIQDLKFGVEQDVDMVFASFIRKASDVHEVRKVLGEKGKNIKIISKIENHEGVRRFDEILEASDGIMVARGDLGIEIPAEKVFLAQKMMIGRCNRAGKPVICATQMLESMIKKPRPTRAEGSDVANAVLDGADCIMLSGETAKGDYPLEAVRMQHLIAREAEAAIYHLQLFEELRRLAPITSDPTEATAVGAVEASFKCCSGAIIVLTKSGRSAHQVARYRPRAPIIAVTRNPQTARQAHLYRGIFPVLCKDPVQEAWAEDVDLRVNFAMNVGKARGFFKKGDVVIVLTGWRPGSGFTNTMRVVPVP
T2 sequence (P14618 whole entry): as the sequence (P14618 whole entry, canonical isoform) above

Binder | stoichiometry N [3] | also measured
B1 | – | binding result [1]: binds
B2 | – | binding result [2]: binds
B3 | 4 | –
B4 | 2 | –
